Results taken from article PMC6097439 (BMC Biology, 2018).
Residue numbers refer to the chain shown, from its start. Values belong to the binder of their own block, whether it stands above or below them.

Columns and labels:
[1] = target: Tie2 expressed on TIME cells (human (endogenous in TIME cells), UniProt Q02763 23-1124); experiment: cell-based or functional assay
[2] = target: αvβ3 integrin expressed on TIME cells (human (endogenous in TIME cells), UniProt P06756 31-1048; P05106 27-788); experiment: cell-based or functional assay
[3] = target: T1, recombinant α5β1 integrin (human, UniProt P08648 42-995; P05556 21-728); experiment: SPR; integrins other than αvβ3 immobilized by amine coupling, 1 μM of the Ang2-BD variants as analyte, 25 °C, IBB; details: both partners purified
T1 construct: human integrin α5 subunit, extracellular domain; human integrin β1 subunit, extracellular domain; source: bought: R&D Systems

[4] = target: Tie2, immobilized for SPR (human, UniProt Q02763 23-1124, Limits of the immobilized Tie2 are not printed. Taken as the mature extracellular domain (the text says extracellular domain of rhTie2 in the dual SPR experiment), ending at Lys745 as in commercial rh); experiment: SPR; Tie2 immobilized, Ang2-BD variants as analytes; ProteOn XPR36; steady state fit; as previously described [54]; details: both partners purified
[5] = target: T2, recombinant αvβ3 integrin (human, UniProt P06756 31-992; P05106 27-718); experiment: SPR; αvβ3 integrin immobilized by amine coupling (GLC chip), 12.5 to 200 nM Ang2-BD variants as analytes, 25 °C, IBB; 1:1 Langmuir model; details: both partners purified
T2 construct: human integrin αv subunit (Phe31-Val992); human integrin β3 subunit (Gly27-Asp718); also called solubilized αvβ3 integrin; αvβ3 integrin extracellular domain; source: bought: R&D Systems

[6] = target: T3, recombinant αvβ5 integrin (human, UniProt P06756 31-992; P18084 24-719); experiment: SPR; αvβ5, αvβ1, αvβ6, αvβ8 integrins immobilized, 62.5 to 1000 nM Ang2-BDBC5 as analyte, 25 °C, IBB; two-state binding model; details: both partners purified
T3 construct: human integrin αv subunit, extracellular domain; human integrin β5 subunit, extracellular domain; source: bought: R&D Systems

[7] = target: T4, recombinant αvβ1 integrin (human, UniProt P06756 31-992; P05556 21-728); experiment: as above; details: both partners purified
T4 construct: human integrin αv subunit, extracellular domain; human integrin β1 subunit, extracellular domain; source: bought: R&D Systems

[8] = target: T5, recombinant αvβ6 integrin (human, UniProt P06756 31-992; P18564 22-709); experiment: as above; details: both partners purified
T5 construct: human integrin αv subunit, extracellular domain; human integrin β6 subunit, extracellular domain; source: bought: R&D Systems

[9] = target: T6, recombinant αvβ8 integrin (human, UniProt P06756 31-992; P26012 43-684); experiment: as above; details: both partners purified
T6 construct: human integrin αv subunit, extracellular domain; human integrin β8 subunit, extracellular domain; source: bought: R&D Systems
T6 sequence (P06756 31-992, chain 1 of 2): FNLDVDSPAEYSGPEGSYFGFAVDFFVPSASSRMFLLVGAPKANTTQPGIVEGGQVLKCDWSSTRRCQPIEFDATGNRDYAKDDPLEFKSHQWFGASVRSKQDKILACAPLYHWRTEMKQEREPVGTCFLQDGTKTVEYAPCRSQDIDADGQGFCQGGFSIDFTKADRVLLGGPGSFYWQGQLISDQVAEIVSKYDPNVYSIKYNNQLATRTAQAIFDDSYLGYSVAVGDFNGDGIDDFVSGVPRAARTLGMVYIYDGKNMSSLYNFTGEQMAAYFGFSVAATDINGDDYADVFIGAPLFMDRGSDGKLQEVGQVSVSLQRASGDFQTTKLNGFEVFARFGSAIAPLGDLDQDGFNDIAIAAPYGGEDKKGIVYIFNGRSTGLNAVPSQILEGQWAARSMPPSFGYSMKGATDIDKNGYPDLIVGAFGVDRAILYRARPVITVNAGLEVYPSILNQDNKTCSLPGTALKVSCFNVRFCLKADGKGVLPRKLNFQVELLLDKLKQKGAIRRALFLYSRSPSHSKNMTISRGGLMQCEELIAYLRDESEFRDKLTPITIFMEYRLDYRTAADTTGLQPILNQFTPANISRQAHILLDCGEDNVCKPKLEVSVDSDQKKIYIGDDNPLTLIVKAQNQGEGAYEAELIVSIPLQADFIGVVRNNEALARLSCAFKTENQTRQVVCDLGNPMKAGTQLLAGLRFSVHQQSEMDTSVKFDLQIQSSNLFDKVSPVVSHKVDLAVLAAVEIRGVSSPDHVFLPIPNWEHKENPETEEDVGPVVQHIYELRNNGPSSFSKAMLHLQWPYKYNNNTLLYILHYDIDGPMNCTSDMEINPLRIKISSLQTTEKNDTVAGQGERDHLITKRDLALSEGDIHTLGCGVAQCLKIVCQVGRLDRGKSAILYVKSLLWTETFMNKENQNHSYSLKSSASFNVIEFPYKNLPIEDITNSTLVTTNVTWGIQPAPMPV
T6 sequence (P26012 43-684, chain 2 of 2): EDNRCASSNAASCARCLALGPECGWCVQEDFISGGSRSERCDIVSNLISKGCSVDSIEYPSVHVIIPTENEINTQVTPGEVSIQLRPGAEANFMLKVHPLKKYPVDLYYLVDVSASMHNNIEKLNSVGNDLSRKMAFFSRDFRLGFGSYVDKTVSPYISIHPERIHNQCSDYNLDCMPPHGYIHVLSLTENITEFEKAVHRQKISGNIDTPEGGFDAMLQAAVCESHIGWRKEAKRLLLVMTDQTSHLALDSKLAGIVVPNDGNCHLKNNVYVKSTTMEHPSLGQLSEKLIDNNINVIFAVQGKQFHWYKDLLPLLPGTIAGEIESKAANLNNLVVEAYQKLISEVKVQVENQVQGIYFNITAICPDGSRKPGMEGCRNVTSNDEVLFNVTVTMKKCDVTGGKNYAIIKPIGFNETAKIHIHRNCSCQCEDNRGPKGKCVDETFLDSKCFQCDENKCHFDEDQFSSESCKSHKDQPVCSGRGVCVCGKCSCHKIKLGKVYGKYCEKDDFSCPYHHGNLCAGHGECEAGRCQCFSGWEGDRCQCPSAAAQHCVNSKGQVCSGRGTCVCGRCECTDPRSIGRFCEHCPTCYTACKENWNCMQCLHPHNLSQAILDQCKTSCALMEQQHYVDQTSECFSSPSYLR

Chain of Tie2 expressed on TIME cells (Q02763 23-1124): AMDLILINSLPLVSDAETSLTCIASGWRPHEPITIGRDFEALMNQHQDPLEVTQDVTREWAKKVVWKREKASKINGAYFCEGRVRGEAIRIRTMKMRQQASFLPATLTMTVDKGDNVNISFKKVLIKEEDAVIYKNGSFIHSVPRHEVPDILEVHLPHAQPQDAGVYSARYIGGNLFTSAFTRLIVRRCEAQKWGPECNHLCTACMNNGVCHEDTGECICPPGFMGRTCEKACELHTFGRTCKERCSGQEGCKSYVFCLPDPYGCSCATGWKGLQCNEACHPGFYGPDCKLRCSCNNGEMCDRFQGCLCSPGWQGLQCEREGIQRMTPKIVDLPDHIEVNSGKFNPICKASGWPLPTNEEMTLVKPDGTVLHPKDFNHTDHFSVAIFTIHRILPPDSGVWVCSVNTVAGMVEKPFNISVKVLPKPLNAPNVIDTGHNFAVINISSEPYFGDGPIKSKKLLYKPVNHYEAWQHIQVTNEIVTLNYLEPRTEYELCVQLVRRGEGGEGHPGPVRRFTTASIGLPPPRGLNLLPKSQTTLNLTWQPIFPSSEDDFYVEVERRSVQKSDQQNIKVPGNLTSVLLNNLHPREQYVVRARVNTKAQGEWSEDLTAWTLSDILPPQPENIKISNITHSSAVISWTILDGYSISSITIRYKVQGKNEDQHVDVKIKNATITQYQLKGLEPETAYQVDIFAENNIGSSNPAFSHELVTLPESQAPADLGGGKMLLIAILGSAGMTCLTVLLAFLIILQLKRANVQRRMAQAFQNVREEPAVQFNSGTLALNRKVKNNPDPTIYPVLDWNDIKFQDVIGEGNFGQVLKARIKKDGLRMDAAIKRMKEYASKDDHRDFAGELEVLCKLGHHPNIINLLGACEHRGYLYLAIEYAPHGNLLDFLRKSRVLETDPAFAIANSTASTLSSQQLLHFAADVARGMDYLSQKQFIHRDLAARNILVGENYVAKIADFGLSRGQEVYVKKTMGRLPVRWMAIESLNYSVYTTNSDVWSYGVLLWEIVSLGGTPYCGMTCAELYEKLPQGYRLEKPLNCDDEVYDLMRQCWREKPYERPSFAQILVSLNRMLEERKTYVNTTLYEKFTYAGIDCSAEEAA
Chain of Tie2, immobilized for SPR (Q02763 23-1124): as above
T5 sequence (P06756 31-992, chain 1 of 2): as the sequence (P06756 31-992, chain 1 of 2) above
T5 sequence (P18564 22-709, chain 2 of 2): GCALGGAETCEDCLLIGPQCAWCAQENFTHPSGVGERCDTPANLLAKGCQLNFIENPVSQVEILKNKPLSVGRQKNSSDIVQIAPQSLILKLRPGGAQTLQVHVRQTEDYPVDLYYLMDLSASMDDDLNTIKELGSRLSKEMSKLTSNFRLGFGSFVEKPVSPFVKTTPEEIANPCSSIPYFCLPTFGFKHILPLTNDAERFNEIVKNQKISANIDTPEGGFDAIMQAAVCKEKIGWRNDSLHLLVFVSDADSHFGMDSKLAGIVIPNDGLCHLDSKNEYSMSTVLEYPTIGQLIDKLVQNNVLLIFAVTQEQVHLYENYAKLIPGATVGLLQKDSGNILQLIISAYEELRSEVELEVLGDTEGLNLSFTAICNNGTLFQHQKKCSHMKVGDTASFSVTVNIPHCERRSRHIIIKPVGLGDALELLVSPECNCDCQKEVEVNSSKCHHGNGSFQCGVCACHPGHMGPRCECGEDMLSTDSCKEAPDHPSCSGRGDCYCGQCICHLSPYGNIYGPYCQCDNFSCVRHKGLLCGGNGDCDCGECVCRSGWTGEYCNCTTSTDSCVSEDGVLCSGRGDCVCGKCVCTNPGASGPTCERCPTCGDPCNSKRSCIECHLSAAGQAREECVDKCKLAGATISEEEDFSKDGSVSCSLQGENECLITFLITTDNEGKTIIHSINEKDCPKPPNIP
T2 sequence (P06756 31-992, chain 1 of 2): as the sequence (P06756 31-992, chain 1 of 2) above
T2 sequence (P05106 27-718, chain 2 of 2): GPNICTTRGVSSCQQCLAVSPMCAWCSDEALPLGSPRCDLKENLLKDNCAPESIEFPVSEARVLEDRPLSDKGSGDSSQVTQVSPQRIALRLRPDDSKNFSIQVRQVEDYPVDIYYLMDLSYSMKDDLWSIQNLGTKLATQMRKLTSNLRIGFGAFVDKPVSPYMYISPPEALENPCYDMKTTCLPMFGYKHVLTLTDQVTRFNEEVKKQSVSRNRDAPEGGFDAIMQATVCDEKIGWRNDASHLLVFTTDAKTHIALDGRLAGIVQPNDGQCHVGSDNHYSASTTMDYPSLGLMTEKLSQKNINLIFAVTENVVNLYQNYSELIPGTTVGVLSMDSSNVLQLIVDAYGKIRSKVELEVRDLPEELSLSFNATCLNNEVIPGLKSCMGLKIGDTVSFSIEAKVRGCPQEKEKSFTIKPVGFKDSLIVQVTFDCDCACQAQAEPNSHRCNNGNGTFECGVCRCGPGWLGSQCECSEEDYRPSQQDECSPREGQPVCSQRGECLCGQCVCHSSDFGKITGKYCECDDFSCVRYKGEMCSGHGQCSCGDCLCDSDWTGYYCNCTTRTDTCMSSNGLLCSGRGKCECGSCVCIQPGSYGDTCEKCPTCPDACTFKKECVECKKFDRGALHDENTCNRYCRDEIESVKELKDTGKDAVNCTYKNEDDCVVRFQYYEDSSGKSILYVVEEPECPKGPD
T4 sequence (P06756 31-992, chain 1 of 2): as the sequence (P06756 31-992, chain 1 of 2) above
T4 sequence (P05556 21-728, chain 2 of 2): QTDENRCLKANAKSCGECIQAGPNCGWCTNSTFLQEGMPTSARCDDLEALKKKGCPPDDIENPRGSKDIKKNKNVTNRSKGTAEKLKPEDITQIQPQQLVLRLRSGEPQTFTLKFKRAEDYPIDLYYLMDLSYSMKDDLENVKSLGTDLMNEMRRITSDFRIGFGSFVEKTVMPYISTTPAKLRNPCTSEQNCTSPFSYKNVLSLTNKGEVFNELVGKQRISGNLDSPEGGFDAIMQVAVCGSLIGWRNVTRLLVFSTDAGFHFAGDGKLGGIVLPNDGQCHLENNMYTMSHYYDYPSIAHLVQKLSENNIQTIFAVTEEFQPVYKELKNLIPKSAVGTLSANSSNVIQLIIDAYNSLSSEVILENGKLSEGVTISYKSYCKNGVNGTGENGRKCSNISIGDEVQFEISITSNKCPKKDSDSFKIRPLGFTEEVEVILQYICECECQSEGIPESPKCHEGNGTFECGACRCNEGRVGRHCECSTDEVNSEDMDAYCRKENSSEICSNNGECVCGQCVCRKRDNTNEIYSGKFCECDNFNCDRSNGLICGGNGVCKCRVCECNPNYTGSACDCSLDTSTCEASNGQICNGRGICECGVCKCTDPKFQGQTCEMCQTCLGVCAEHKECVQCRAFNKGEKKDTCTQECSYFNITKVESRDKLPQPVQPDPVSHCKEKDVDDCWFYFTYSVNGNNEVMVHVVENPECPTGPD

- decrease in Tie2 phosphorylation intensity, TIME cells on vitronectin, 500 ng/ml FL-Ang1 with 1 μM variant (blocks FL-Ang1 on Tie2) [1]: 64%
- decrease in adhesion of TIME cells to vitronectin-coated plates, 1 μM variant, with 500 ng/ml FL-Ang1 (blocks αvβ3 integrin on vitronectin) [2]: 35%
- decrease in adhesion of TIME cells to vitronectin-coated plates, 1 μM variant, without FL-Ang1 (blocks αvβ3 integrin on vitronectin) [2]: 39%
- binding result [3]: binds
- Kd [4]: 1260 nM
- Kd [5]: 2.97 nM
- koff [5]: 0.000236 s⁻¹
- kon [5]: 79400 M⁻¹ s⁻¹
B1: Ang2-BDBC6, soluble protein (designed binder)
chain: FRDCAEVFKSGHTTNGIYTLREGRGDNVDIKAYCDMEAGGGGWTIIQRREDGSVDFQRTWKEYKVGFGNPSGEYWLGNEFVSQLTNQQRYVLKIHLKDWEGNEAYSLYEHFYLSSEELNYRIHLKGLTGTAGKISSISQPGNDFSTKDGDNDKCICKCSQMLTGGWWFDACGPSNLNGMYYPQRQNTNKFNGIKWYYWKGSGYSLKATTMMIRPADF
notes: also called Ang2-BD bi-specific variant; source: Pichia (Multi-Copy Pichia Expression Kit), purified from yeast culture supernatant (HisTrap, Superdex 200)

- decrease in Tie2 phosphorylation intensity, TIME cells on vitronectin, 500 ng/ml FL-Ang1 with 1 μM variant (blocks FL-Ang1 on Tie2) [1]: 67%
- decrease in adhesion of TIME cells to vitronectin-coated plates, 1 μM variant, with 500 ng/ml FL-Ang1 (blocks αvβ3 integrin on vitronectin) [2]: 53%
- decrease in adhesion of TIME cells to vitronectin-coated plates, 1 μM variant, without FL-Ang1 (blocks αvβ3 integrin on vitronectin) [2]: 30%
- binding result [3]: binds
- Kd [4]: 1360 nM
- Kd [6]: 65 nM
- Koff1 (two-state model, step 1) [6]: 0.00259 s⁻¹
- Koff2 (two-state model, step 2) [6]: 0.00035 s⁻¹
- Kon1 (two-state model, step 1) [6]: 39800 M⁻¹ s⁻¹
- Kon2 (two-state model, step 2) [6]: 0.00544 s⁻¹
- Kd [7]: 550 nM
- Koff1 (two-state model, step 1) [7]: 0.00629 s⁻¹
- Koff2 (two-state model, step 2) [7]: 0.00197 s⁻¹
- Kon1 (two-state model, step 1) [7]: 11400 M⁻¹ s⁻¹
- Kon2 (two-state model, step 2) [7]: 0.00304 s⁻¹
- Kd [8]: 364 nM
- Koff1 (two-state model, step 1) [8]: 0.00835 s⁻¹
- Koff2 (two-state model, step 2) [8]: 0.00106 s⁻¹
- Kon1 (two-state model, step 1) [8]: 22900 M⁻¹ s⁻¹
- Kon2 (two-state model, step 2) [8]: 0.0032 s⁻¹
- Kd [9]: 138 nM
- Koff1 (two-state model, step 1) [9]: 0.00505 s⁻¹
- Koff2 (two-state model, step 2) [9]: 0.00215 s⁻¹
- Kon1 (two-state model, step 1) [9]: 36600 M⁻¹ s⁻¹
- Kon2 (two-state model, step 2) [9]: 0.0024 s⁻¹
- Kd [5]: 14.9 nM
- koff [5]: 0.000444 s⁻¹
- kon [5]: 29900 M⁻¹ s⁻¹
B2: Ang2-BDBC5, soluble protein (designed binder)
chain: B1 chain with R21N, E22T, G23C, N27C, V28L, D29P
notes: as for B1

- decrease in Tie2 phosphorylation intensity, TIME cells on vitronectin, 500 ng/ml FL-Ang1 with 1 μM variant (blocks FL-Ang1 on Tie2) [1]: 67%
- decrease in adhesion of TIME cells to vitronectin-coated plates, 1 μM variant, with 500 ng/ml FL-Ang1 (blocks αvβ3 integrin on vitronectin) [2]: 37%
- decrease in adhesion of TIME cells to vitronectin-coated plates, 1 μM variant, without FL-Ang1 (blocks αvβ3 integrin on vitronectin) [2]: 47%
- binding result [3]: binds
- Kd [4]: 950 nM
- Kd [5]: 4.17 nM
- koff [5]: 0.000429 s⁻¹
- kon [5]: 103000 M⁻¹ s⁻¹
B3: Ang2-BDBC10, soluble protein (designed binder)
chain: B1 chain with R21Y, E22P, V28P
notes: as for B1

- Kd [4]: 660 nM
B4: Ang2-BDWT, soluble protein (domain or fragment, UniProt O15123 281-496, looked up)
chain: FRDCAEVFKSGHTTNGIYTLTFPNSTEEIKAYCDMEAGGGGWTIIQRREDGSVDFQRTWKEYKVGFGNPSGEYWLGNEFVSQLTNQQRYVLKIHLKDWEGNEAYSLYEHFYLSSEELNYRIHLKGLTGTAGKISSISQPGNDFSTKDGDNDKCICKCSQMLTGGWWFDACGPSNLNGMYYPQRQNTNKFNGIKWYYWKGSGYSLKATTMMIRPADF
notes: The limits 281-496 are stated for the Ang2-BDWT gene; also called wild-type Ang2 BD; mono-specific Ang2-BDWT; source: Pichia (Multi-Copy Pichia Expression Kit), purified from yeast culture supernatant (HisTrap, Superdex 200)
